Measured values as given in IntAct's records for PubMed 15105431.

B1: T-cell surface antigen CD2 (Homo sapiens), P06729 (parent)
chain: MSFPCKFVASFLLIFNVSSKGAVSKEITNALETWGALGQDINLDIPSFQMSDDIDDIKWEKTSDKKKIAQFRKEKETFKEKDTYKLFKNGTLKIKHLKTDDQDIYKVSIYDTKGKNVLEKIFDLKIQERVSKPKISWTCINTTLTCEVMNGTDPELNLYQDGKHLKLSQRVITHKWTTSLSAKFKCTAGNKVSKESSVEPVSCPEKGLDIYLIIGICGGGSLLMVFVALLVFYITKRKKQRSRRNDEELETRAHRVATEERGRKPHQIPASTPQNPATSQHPPPPPGHRSQAPSHRPPPPGHRVQHQPQKRPPAPSGTQVHQQKGPPLPRPRVQPKPPHGAAENSLSPSSN
partner: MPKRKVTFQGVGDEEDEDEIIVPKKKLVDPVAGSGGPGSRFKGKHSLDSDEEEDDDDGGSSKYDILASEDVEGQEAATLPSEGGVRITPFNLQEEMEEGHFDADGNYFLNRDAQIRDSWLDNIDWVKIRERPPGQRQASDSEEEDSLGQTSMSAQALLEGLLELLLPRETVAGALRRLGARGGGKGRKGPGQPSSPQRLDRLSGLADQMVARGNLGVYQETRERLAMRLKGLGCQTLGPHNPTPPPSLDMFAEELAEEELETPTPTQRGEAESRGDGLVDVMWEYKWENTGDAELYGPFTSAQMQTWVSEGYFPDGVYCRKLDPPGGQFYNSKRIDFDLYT

Variants of: B1
Conditions: with cd2b2_human CD2BP2, O95400

Effect of a mutation on the interaction of substitutions, site by site:
R303: I decreasing interaction strength; A disrupting interaction strength; F decreasing interaction strength; D disrupting interaction strength; C disrupting interaction strength; G disrupting interaction strength; Q decreasing interaction strength; E disrupting interaction strength; P decreasing interaction strength; Y disrupting interaction strength; M decreasing interaction strength; W disrupting interaction strength; H decreasing interaction strength; N decreasing interaction strength; L decreasing interaction strength; S disrupting interaction strength; V disrupting interaction strength; T disrupting interaction strength
V304: C decreasing interaction strength; D decreasing interaction strength; E decreasing interaction strength; W decreasing interaction strength
G301: P decreasing interaction strength; F decreasing interaction strength; V disrupting interaction strength; S decreasing interaction strength; K decreasing interaction strength; M disrupting interaction strength; T disrupting interaction strength; I decreasing interaction strength; N decreasing interaction strength; H decreasing interaction strength; A disrupting interaction strength; Q decreasing interaction strength; Y decreasing interaction strength
P300: W decreasing interaction strength; A disrupting interaction strength; S disrupting interaction strength; K decreasing interaction strength; T disrupting interaction strength; E disrupting interaction strength; H decreasing interaction strength; C decreasing interaction strength; F decreasing interaction strength; R decreasing interaction strength; D disrupting interaction strength; I decreasing interaction strength; V disrupting interaction strength; L decreasing interaction strength; Y decreasing interaction strength; M decreasing interaction strength; N decreasing interaction strength; Q decreasing interaction strength
P299: C decreasing interaction strength; L disrupting interaction strength; D disrupting interaction strength; F decreasing interaction strength; R disrupting interaction strength; V disrupting interaction strength; T disrupting interaction strength; Q disrupting interaction strength; E disrupting interaction strength; H decreasing interaction strength; I decreasing interaction strength; N decreasing interaction strength; Y disrupting interaction strength; K decreasing interaction strength
H302: E decreasing interaction strength; D decreasing interaction strength
